± gives the standard deviation of the averaged measurements.
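Also: ATP exposure 15 min at 22 °C before imaging.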

The data set deals with ATP. Briefly: switch fluorescence ratio, 500 uM ATP over buffer (Cy3 cluster intensity, sum of 5 cycles each) (fold (ratio)); higher = stronger signal-on switching upon ATP binding; sequences stand for … in TCGTCGGCAGCGTCAGATGTGTATAAGAGACAGTTTTTTTTTTTTTTTTTTTTTTTTT…TC. The following applies: aptamer strand: ATP DNA aptamer (quencher-CACCTGGGGGAGTATTGCGGAGGAAGG + anchor), 100 nM annealed; ATP concentration: 500 uM. The gist of the method:
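Per cluster, summed Cy3 intensity from the target cycles was divided by that from the buffer cycles to give the fluorescence ratio, then averaged per switch-domain sequence. Clusters outside 100-1000 RFU were excluded. The Cy3-labelled switching-strand clusters, on a modified Illumina MiSeq flow-cell, were annealed to 100 nM quencher-labelled ATP aptamer and imaged in selection buffer, then after 15 min with 500 uM ATP at 22 °C, for five cycles with NaOH stripping and re-annealing between them.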
For TGGATATAGT, the switch fluorescence ratio worked out at 0.9937 ± 0.0038.

For the sequence AGGCAGGCGG, the switch fluorescence ratio turned out to be 1.01 ± 0.073.

Regarding GTGGGTAGCG, the switch fluorescence ratio came to 0.994 ± 0.013.

In the case of ACCTCGTTTT, the switch fluorescence ratio stood at 0.9879 ± 0.0062.

For the sequence TATGGTCAG, the switch fluorescence ratio came out at 1.02 ± 0.042.

Regarding ATGAGTATTG, the switch fluorescence ratio was 0.9888 ± 0.0078.

Turning to TTTTATGGTG, the switch fluorescence ratio worked out at 0.994 ± 0.019.

For the sequence CAGAAGTCTC, the switch fluorescence ratio amounted to 1 ± 0.014.

Take ACTTGGACGT: the switch fluorescence ratio was 1.05 ± 0.048.

On to TTTATTCTAT, for which the switch fluorescence ratio came to 1.02 ± 0.011.

For the sequence TTCAGCATTT, the switch fluorescence ratio amounted to 1.1 ± 0.068.

In the case of ATAAAGAAGT, the switch fluorescence ratio was 1.007 ± 0.0052.

As to TGCGATGCGG, the switch fluorescence ratio amounted to 0.979 ± 0.037.

As to CCAGAGGTGT, the switch fluorescence ratio is 1.6 ± 0.064.

For the sequence AAAAAAGTAG, the switch fluorescence ratio was 1.03 ± 0.012.

As for TTGGTGCCCG, the switch fluorescence ratio was determined as 1.01 ± 0.037.

For GACTCAATGG, the switch fluorescence ratio was 1.14 ± 0.03.

Consider TATTACGGGG, for which the switch fluorescence ratio was 1.005 ± 0.006.

With GCGGGTGGAT, the switch fluorescence ratio amounted to 1.01 ± 0.053.

On to GTAGGGGCTG, for which the switch fluorescence ratio is 1 ± 0.074.

Regarding CCTGGGGGAG, the switch fluorescence ratio was determined as 1.05 ± 0.11.

Consider CTTGTCCAGC, for which the switch fluorescence ratio was 1.04 ± 0.037.

Take GGGTGACGAG: the switch fluorescence ratio amounted to 1 ± 0.038.

Turning to CACAAGGGCG, the switch fluorescence ratio came to 0.94 ± 0.02.

For TGTGTAAGGT, the switch fluorescence ratio is 1.02 ± 0.025.

For CGGAGGGGTC, the switch fluorescence ratio turned out to be 1.02 ± 0.02.

As to TTAGGATGTG, the switch fluorescence ratio is 0.984 ± 0.022.

On to AGTGACCTAG, for which the switch fluorescence ratio amounted to 1.017 ± 0.0039.

For TGTGGAAAGA, the switch fluorescence ratio amounted to 0.992 ± 0.054.

As for ATTTGTAAGT, the switch fluorescence ratio is 0.9587 ± 0.006.

As to TTGAGTCGTC, the switch fluorescence ratio came to 0.962 ± 0.011.

With GTCAGGCCGG, the switch fluorescence ratio is 1.09 ± 0.15.

Regarding GTGGCTGAGG, the switch fluorescence ratio is 1.004 ± 0.0082.

Consider GAGGGAAACT, for which the switch fluorescence ratio is 1.05 ± 0.11.

On to GGGCTTGTGT, for which the switch fluorescence ratio turned out to be 0.993 ± 0.032.

For the sequence CGTTCGTGTG, the switch fluorescence ratio is 1.017 ± 0.0044.

In the case of TTTTCATACT, the switch fluorescence ratio is 1.07 ± 0.046.

Consider GTTGGTTACC, for which the switch fluorescence ratio came out at 1.01 ± 0.041.

As for GGAGGGGTTT, the switch fluorescence ratio was found to be 1.01 ± 0.04.

In the case of TCGTGTTTTT, the switch fluorescence ratio came to 1.01 ± 0.013.

Consider AACGGGGGCA, for which the switch fluorescence ratio was 0.925 ± 0.025.

For TATGGAAAGG, the switch fluorescence ratio stood at 0.994 ± 0.016.

Take TTTGGAGTTG: the switch fluorescence ratio turned out to be 0.987 ± 0.064.

For GGGTGTGGAG, the switch fluorescence ratio is 1.01 ± 0.012.

As for AGGGGAAAAG, the switch fluorescence ratio turned out to be 0.993 ± 0.049.

For AGGGCTCGTT, the switch fluorescence ratio stood at 0.9801 ± 0.0094.

On to TGTTAAATGT, for which the switch fluorescence ratio was determined as 1.005 ± 0.01.

Regarding ACTGCGTGAT, the switch fluorescence ratio amounted to 1.05 ± 0.022.

As to GGGGTGAGTT, the switch fluorescence ratio stood at 0.931 ± 0.072.

In the case of GATTTACGTG, the switch fluorescence ratio was 1.02 ± 0.012.

With AGTCATTCTC, the switch fluorescence ratio came to 0.9841 ± 0.003.

For the sequence TTGAGACTGT, the switch fluorescence ratio was 0.971 ± 0.052.

Take GCAGGGGGTT: the switch fluorescence ratio amounted to 1 ± 0.028.

TTTGGTGGTC: the switch fluorescence ratio came to 0.971 ± 0.022.

As to GCGGTAGAGC, the switch fluorescence ratio was found to be 1.017 ± 0.0099.

For the sequence TAGGAGTGGG, the switch fluorescence ratio was 1 ± 0.01.

In the case of GAGTTGGTTT, the switch fluorescence ratio was found to be 1 ± 0.022.

On to GGGTCGGGGG, for which the switch fluorescence ratio amounted to 0.994 ± 0.04.

As for GAGGGGGGGA, the switch fluorescence ratio turned out to be 1 ± 0.044.

Turning to AGGGAATTTG, the switch fluorescence ratio was 1.014 ± 0.0021.

In the case of CAGGGTTAGG, the switch fluorescence ratio amounted to 1.01 ± 0.026.

On to TGTTGGAGAA, for which the switch fluorescence ratio turned out to be 0.988 ± 0.011.

For ATGGGCCGCT, the switch fluorescence ratio was 0.9835 ± 0.0087.

In the case of AGTTGGGGTG, the switch fluorescence ratio came to 0.989 ± 0.034.

As for ACTGCGGGAC, the switch fluorescence ratio is 1.51 ± 0.69.

Regarding CGTGTTGGGG, the switch fluorescence ratio is 0.971 ± 0.039.

Consider TTGCTGAGCT, for which the switch fluorescence ratio turned out to be 0.9984 ± 0.0076.

With TAGTCAGAAT, the switch fluorescence ratio came to 0.967 ± 0.012.

In the case of TAGGGGCTTC, the switch fluorescence ratio is 0.979 ± 0.018.

Consider GCGGGGACGT, for which the switch fluorescence ratio was determined as 1.02 ± 0.027.

As to TTGTGCGCGC, the switch fluorescence ratio turned out to be 1.022 ± 0.0018.

Take GCCTTATATG: the switch fluorescence ratio came to 0.968 ± 0.03.

As to GTAATGCTTG, the switch fluorescence ratio was 1.012 ± 0.01.

With AACGGGGTGT, the switch fluorescence ratio was 1.062 ± 0.0093.

With TTTTGGTTGT, the switch fluorescence ratio stood at 1.01 ± 0.029.

On to GATGTCGTAC, for which the switch fluorescence ratio is 0.99 ± 0.012.

Consider GGGGATATCG, for which the switch fluorescence ratio was 1.03 ± 0.024.

As to TGGTAATTAT, the switch fluorescence ratio was 0.974 ± 0.023.

Consider GTTTTACCTG, for which the switch fluorescence ratio is 1 ± 0.03.
